Data on four molecules can be found in article PMC5207208 (Science (New York, N.Y.), 2016).

The target in assay [1] is Nup192 (Chaetomium thermophilum, UniProt G0S4T0 1-1756). Nature of the assay: SEC-MALS. (In general: Size exclusion chromatography separates by hydrodynamic size, large species first.)
Assay [2] has as its target Nup188 (Chaetomium thermophilum, UniProt G0SFH5 1-1858). Nature of the assay: SEC-MALS.

Nup192, sequence (G0S4T0 whole entry): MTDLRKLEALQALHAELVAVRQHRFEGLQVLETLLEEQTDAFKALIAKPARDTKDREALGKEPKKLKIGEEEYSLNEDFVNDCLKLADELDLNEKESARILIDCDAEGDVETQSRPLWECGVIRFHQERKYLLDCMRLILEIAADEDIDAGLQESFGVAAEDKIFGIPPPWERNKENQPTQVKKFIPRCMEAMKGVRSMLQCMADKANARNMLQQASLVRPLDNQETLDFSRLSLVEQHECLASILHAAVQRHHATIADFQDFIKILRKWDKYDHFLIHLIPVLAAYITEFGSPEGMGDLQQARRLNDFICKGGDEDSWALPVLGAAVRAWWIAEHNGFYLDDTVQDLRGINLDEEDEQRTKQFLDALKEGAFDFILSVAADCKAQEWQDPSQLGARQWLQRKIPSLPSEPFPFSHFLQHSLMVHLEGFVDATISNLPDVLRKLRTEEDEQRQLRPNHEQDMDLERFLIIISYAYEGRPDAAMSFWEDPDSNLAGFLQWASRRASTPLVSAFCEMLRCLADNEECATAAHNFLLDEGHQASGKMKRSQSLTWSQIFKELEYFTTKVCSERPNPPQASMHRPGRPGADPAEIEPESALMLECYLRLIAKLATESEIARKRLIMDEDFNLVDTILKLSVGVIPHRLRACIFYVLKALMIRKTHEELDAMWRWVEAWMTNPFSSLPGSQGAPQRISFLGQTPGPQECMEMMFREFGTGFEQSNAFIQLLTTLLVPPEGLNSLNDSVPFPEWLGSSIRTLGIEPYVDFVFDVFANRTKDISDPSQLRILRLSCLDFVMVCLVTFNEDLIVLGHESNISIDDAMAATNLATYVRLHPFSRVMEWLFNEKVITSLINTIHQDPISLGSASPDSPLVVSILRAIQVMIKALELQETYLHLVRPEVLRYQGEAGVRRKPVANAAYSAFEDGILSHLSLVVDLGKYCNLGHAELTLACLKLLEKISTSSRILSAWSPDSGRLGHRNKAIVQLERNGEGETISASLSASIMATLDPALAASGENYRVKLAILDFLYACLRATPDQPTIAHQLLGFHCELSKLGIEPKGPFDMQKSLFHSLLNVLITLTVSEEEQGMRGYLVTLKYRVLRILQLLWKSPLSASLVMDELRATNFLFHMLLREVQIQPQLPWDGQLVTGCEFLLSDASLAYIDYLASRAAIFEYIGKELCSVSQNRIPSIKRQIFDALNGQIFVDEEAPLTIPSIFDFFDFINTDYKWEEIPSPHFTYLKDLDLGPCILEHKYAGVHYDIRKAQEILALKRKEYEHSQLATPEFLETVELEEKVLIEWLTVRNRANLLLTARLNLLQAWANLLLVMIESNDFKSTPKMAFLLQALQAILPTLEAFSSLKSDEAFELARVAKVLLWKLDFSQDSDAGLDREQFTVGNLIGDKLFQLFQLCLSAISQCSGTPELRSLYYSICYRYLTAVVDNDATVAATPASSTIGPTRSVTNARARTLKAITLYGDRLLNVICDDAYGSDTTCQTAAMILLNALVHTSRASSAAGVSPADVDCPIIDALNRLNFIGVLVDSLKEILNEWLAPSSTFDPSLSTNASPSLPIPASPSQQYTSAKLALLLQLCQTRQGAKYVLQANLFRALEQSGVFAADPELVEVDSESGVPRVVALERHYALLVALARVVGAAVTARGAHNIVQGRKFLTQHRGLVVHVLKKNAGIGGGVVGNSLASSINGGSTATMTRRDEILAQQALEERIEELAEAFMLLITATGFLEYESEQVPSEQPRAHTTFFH
Nup188, sequence (G0SFH5 whole entry): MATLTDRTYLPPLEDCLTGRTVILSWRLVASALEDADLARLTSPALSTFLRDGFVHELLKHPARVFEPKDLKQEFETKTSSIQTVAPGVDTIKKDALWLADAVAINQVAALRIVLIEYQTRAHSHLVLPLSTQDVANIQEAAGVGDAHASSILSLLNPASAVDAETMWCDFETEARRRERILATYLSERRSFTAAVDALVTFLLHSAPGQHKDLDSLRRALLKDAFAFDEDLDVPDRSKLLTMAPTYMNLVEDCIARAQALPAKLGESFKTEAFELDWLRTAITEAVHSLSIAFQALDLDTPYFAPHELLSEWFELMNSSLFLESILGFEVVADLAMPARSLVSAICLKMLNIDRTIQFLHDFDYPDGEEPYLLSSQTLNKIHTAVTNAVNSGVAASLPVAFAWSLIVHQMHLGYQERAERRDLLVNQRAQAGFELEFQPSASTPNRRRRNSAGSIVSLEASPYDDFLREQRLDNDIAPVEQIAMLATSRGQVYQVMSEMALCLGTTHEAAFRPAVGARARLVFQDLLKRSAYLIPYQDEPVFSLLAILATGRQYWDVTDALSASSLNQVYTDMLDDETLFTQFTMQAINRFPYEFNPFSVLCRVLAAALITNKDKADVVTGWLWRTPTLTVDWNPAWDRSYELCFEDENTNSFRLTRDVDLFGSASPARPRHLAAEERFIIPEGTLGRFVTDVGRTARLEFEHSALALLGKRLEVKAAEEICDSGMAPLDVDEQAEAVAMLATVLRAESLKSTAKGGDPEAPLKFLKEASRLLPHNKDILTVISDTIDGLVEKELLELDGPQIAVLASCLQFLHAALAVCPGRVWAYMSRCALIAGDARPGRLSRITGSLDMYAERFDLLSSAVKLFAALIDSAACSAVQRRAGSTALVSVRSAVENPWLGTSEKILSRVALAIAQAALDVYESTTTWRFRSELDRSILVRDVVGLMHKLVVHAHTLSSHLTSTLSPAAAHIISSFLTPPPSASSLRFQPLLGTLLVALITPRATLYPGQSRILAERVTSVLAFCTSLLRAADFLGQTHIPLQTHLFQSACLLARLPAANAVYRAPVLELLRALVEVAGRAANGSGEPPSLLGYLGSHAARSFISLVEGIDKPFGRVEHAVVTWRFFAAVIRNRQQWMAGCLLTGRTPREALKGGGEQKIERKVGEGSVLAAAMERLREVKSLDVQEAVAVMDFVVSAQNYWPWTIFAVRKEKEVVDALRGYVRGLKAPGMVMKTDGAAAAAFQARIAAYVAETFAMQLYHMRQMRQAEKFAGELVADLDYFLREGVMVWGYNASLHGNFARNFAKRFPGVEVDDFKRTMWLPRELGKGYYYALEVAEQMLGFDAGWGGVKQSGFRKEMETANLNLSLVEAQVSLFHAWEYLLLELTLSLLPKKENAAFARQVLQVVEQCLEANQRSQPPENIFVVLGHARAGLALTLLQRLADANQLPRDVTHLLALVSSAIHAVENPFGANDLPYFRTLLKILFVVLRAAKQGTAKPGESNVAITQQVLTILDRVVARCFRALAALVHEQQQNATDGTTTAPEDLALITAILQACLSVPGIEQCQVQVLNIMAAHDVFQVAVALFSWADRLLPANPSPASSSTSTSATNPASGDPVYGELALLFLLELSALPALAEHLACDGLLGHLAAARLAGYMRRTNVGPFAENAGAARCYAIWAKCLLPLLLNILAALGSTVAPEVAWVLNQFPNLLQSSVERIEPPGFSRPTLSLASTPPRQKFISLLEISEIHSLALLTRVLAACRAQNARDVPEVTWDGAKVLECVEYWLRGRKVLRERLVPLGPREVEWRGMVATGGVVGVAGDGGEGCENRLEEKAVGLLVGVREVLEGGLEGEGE

Regarding EWEAQRKRIYQHFGIK (peptide, UniProt G0S024 286-301, looked up) [Nic96 fragment (residues 286–301)], the binding result in assay [1] was “binds”.

B1: Nup145N fragment (residues 606–750) (domain or fragment, Chaetomium thermophilum, UniProt G0SAK3 606-750, looked up)
chain: DDKIQNPGPLATPLSGKAKVKSRSILPMYKLSPANASRLVTTPQKRAYGFSFSAYGSPTSPSSSASSTPGAFGQSILSSSINRGLNKSISASNLRRSLNVEDSILQPGAFSANSSMRLLGGPGSHKKLVINKDMRTDLFSPPNKD
In the case of B1, the binding result in assay [2] was “binds”.

DFDAFLEENVTLEWEAQRKRIYQHFGIK (peptide, UniProt G0S024 274-301, looked up) [Nic96 fragment (residues 274–301)]: the binding result in assay [2] was “binds”.

B2: Nup145N fragment (residues 606–683) (domain or fragment, Chaetomium thermophilum, UniProt G0SAK3 606-683, looked up)
chain: DDKIQNPGPLATPLSGKAKVKSRSILPMYKLSPANASRLVTTPQKRAYGFSFSAYGSPTSPSSSASSTPGAFGQSILS
For B2, the binding result in assay [1] is reported as “binds”.
